Results reported in patent publication US20100317583A1, “TREATMENT OF MELANOMA WITH ALPHA THYMOSIN PEPTIDES IN COMBINATION WITH AN ANTINEOPLASTIC HEAT SHOCK APOPTOSIS ACTIVATOR (HSAA)” (SciClone Pharmaceuticals, Inc., priority 2007, published 2010).
Read-outs that look alike come from different tables or passages of the source. No end group written: not given here.

Type: in vivo
Conditions: for Body weight (Mean ± SD) / PI (BW), inhibition of body weight vs vehicle: low-dose arms: TA-1 6 mg/kg s.c. daily, Pac 10 + Ele 10 mg/kg co-i.v. Days 1, 7, 13
Description: In this study, the anti-tumor effect of the combined treatment of thymosin alpha-1 (TA-1), Paclitaxel (Pac) and Elesclomol (Ele) was evaluated in C57BL/6 mice bearing B16 melanoma cells. The toxic effects of the dosing regimens were also monitored. A total of 60 mice were implanted subcutaneously with murine B16 cells, followed by treatment with TA-1 or Pac/Ele alone or in combination for 14 consecutive days. TA-1 was given daily via s.c., while Pac and Ele were co-i.v. administered on Day 1, 7 and 13. In total, 6 groups were used: Group 1: vehicle; Group 2: TA-1 6 mg/kg; Group 3: Pac 10 mg/kg+Ele 10 mg/kg; Group 4: Pac 30 mg/kg+Ele 30 mg/kg; Group 5: TA-1 6 mg/kg+Pac 10 mg/kg+Ele 10 mg/kg; and Group 6: TA-1 6 mg/kg+Pac 30 mg/kg+Ele 30 mg/kg. Tumor volume and body weight were measured every three days, and tumor weights were measured on Day 17 at the end of the study.
On Day 1, the animals were randomly assigned into different weight-matched groups, and dosing was started using the regimen according to Table 2. Briefly, TA-1 was administered once daily via subcutaneous (s.c.) injection for 14 consecutive days at a site different from that of tumor cell implantation, while Pac and Ele was administered on Days 1, 7, and 13 via an intravenous (i.v.) injection.
From Day 1 to Day 15, mortality and moribundity were checked twice daily, the body weights were recorded once every 3 days, and tumors were measured using a caliper once every 3 days. At the end of the study (Day 17), the animals were euthanized by CO2 asphyxiation, and the tumors were excised and weighed.
Toxicity of all treatment regimens was evaluated with the body weights of the study animals along with the drug-induced animal deaths. The inhibition of body weight was calculated using Excel according to the equation below:
PIBW(%)=100×(BW vehicle−BW drug treated)/BW vehicle
Inter-group comparison was performed in terms of tumor volume, tumor weight and body weight, using a student's t test. P values of less than 0.05 were considered to be statistically significant.

Substance: thymosin alpha 1 (SDAAVDTSSEITTKDLKEKKEVVEEAEN; ends and bridges not checked; UniProt P06454 2-29, looked up) [TA-1, 28 amino acid peptide with a molecular weight of 3108; immunomodulator]
- Body weights (Day 0, animal F1): 21.5 g
- Body weights (Day 0, animal F2): 20.8 g
- Body weights (Day 0, animal F3): 19.3 g
- Body weights (Day 0, animal F4): 20.0 g
- Body weights (Day 0, animal F5): 19.9 g
- Body weights (Day 0, animal M1): 21.8 g
- Body weights (Day 0, animal M2): 21.5 g
- Body weights (Day 0, animal M3): 22.9 g
- Body weights (Day 0, animal M4): 20.7 g
- Body weights (Day 0, animal M5): 21.4 g
- Body weights (Day 3, animal F2): 19.0 g
- Body weights (Day 3, animal F3): 20.2 g
- Body weights (Day 3, animal F4): 19.8 g
- Body weights (Day 3, animal F5): 19.1 g
- Body weights (Day 3, animal M1): 21.1 g
- Body weights (Day 3, animal M2): 17.8 g
- Body weights (Day 3, animal M3): 19.7 g
- Body weights (Day 3, animal M4): 20.4 g
- Body weights (Day 3, animal M5): 19.8 g
- Body weight (Mean ± SD) (Day 3): 19.44 ± 1.12 g
- PI (BW), inhibition of body weight vs vehicle (Day 3): 1.17%
- Body weights (Day 6, animal F2): 21.2 g
- Body weights (Day 6, animal F3): 21.2 g
- Body weights (Day 6, animal F4): 20.7 g
- Body weights (Day 6, animal F5): 21.5 g
- Body weights (Day 6, animal M1): 22.8 g
- Body weights (Day 6, animal M2): 22.3 g
- Body weights (Day 6, animal M3): 22.7 g
- Body weights (Day 6, animal M4): 21.1 g
- Body weights (Day 6, animal M5): 22.2 g
- Body weight (Mean ± SD) (Day 6): 21.63 ± 0.81 g
- PI (BW), inhibition of body weight vs vehicle (Day 6): −0.42%
- Body weights (Day 9, animal F1): 20.4 g
- Body weights (Day 9, animal F2): 20.7 g
- Body weights (Day 9, animal F3): 20.4 g
- Body weights (Day 9, animal F4): 20.2 g
- Body weights (Day 9, animal F5): 20.0 g
- Body weights (Day 9, animal M1): 22.5 g
- Body weights (Day 9, animal M2): 21.2 g
- Body weights (Day 9, animal M3): 22.5 g
- Body weights (Day 9, animal M4): 20.9 g
- Body weights (Day 9, animal M5): 21.7 g
- Body weight (Mean ± SD) (Day 9): 21.05 ± 0.91 g
- PI (BW), inhibition of body weight vs vehicle (Day 9): 1.13%
- Body weights (Day 12, animal F1): 21.5 g
- Body weights (Day 12, animal F2): 21.3 g
- Body weights (Day 12, animal F3): 20.2 g
- Body weights (Day 12, animal F4): 20.1 g
- Body weights (Day 12, animal F5): 20.1 g
- Body weights (Day 12, animal M1): 22.4 g
- Body weights (Day 12, animal M2): 21.5 g
- Body weights (Day 12, animal M3): 22.4 g
- Body weights (Day 12, animal M4): 21.0 g
- Body weights (Day 12, animal M5): 22.2 g
- Body weight (Mean ± SD) (Day 12): 21.27 ± 0.91 g
- PI (BW), inhibition of body weight vs vehicle (Day 12): 2.03%
- Body weights (Day 15, animal F1): 21.7 g
- Body weights (Day 15, animal F2): 21.5 g
- Body weights (Day 15, animal F3): 21.2 g
- Body weights (Day 15, animal F4): 21.2 g
- Body weights (Day 15, animal F5): 21.1 g
- Body weights (Day 15, animal M1): 22.5 g
- Body weights (Day 15, animal M2): 22.5 g
- Body weights (Day 15, animal M3): 23.4 g
- Body weights (Day 15, animal M4): 22.0 g
- Body weights (Day 15, animal M5): 23.6 g
- Body weight (Mean ± SD) (Day 15): 22.07 ± 0.91 g
- PI (BW), inhibition of body weight vs vehicle (Day 15): 1.25%
